Patent US20050089524A1, “Compositions and compounds for use as molecular adjuvant for a nicotine vaccine” (priority 2002, published 2005)

Experiments:
[1] = Anti-nicotine antibodies in immune serum of rats (ELISA); format: in vivo, Wistar rats
Procedure: ii. Animal Models. Five groups of male Wistar rats (ca 275 g) were immunized every other week with: 1) PBS 2) Nic-[…]aR (Nic-SEQ ID NO:1), 3) Nic-[…]aR (Nic-SEQ ID NO:1) in Freund's adjuvant, 4) Nic-[…]aR (Nic-SEQ ID NO:2), and 5) Nic-[…]aR (Nic-SEQ ID NO:2) in Freund's adjuvant. Primary immunizations were accomplished by subcutaneous (s.c.) and intrapertioneal (i.p.) injection of 100 μg of the peptides as indicated above in the presence or absences of complete Freund's adjuvant. Boosting was performed in identical fashion at two-week internals with 100 μg of the peptides in the presence of absence of Freund's adjuvant. Sera were obtained by retro-orbital sinus puncture one week after the third injection.

[2] = molecular target: C5a receptor (C5aR) expressed on the surface of human PMNs (human) (UniProt P21730); test: competition with 125I-C5a on intact human PMNs
[3] = molecular target: C5a receptor (C5aR) expressed on the surface of human PMNs (human) (UniProt P21730); test: competition with 125I-C5a on intact human PMNs; concentration giving 50% inhibition of 125I-C5a binding
[4] = molecular target: C5a receptor (C5aR) expressed on the surface of human PMNs (human) (UniProt P21730); test: cell-based or functional assay
[5] = molecular target: T1, C5a receptor (C5aR) expressed on the surface of human PMNs (human, UniProt P21730 1-350); test: cell-based or functional assay
T1 sequence (looked up): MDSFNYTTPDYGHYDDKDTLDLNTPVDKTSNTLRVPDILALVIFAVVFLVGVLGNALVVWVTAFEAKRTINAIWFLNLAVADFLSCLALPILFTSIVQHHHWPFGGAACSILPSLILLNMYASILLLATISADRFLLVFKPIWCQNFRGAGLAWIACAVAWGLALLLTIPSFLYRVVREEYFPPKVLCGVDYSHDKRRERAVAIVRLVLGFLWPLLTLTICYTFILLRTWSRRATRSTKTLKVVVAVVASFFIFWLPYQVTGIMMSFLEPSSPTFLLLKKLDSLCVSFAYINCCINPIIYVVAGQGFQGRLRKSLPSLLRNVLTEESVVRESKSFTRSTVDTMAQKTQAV

[6] = molecular target: T1, C5a receptor (C5aR) expressed on the …; test: competition with 125I-C5a on intact human PMNs; concentration giving 50% inhibition of 125I-C5a binding
[7] = molecular target: T1, C5a receptor (C5aR) expressed on the …; test: competition with 125I-C5a on intact human PMNs
Procedure: Pharmacologic assays. […] Statistical analysis of the values obtained from pharmacologic assays was performed using one-way analysis of variance (ANOVA).
Pharmacologic activities.

[8] = molecular target: T1, C5a receptor (C5aR) expressed on the …; test: cell-based or functional assay; remark: listed apart in the source
[9] = 100 μg s.c. and i.p., sera one week after the third injection

Molecule: Nic-YKQGGFLGLYSFKPMPLaR [B-cell-C5a-Nic]
- dipper entries on nicotine sessions, first cycle (male Sprague-Dawley rats; 1000 mg (500 mg s.c. and 500 mg i.p.) in saline, boosted weekly for 2 weeks, nicotine 0.4 mg/kg s.c.): significantly less dipper entries than non-vaccinated rats on nicotine Sessions 2 and 3
- index of learning-elevation score for the first light (male Sprague-Dawley rats; first cycle): does not differ between vaccinated and non-vaccinated rats
- dipper entries on saline sessions (male Sprague-Dawley rats; nicotine not present): does not differentially affect behavior in this preparation when nicotine is not present
- Modified Minus Unmodified, BSA [1, 9]: 0 ng/mL
- Modified Minus Unmodified, BSA-Nic [1, 9]: 33,943 ng/ml
- Raw Data, plate coated with BSA [1, 9]: 1,298 ng/ml
- Raw Data, plate coated with BSA-Nic [1, 9]: 35,241 ng/ml
- antibody reactivity on other nicotine-modified peptides ([1]; in the presence of Freund's adjuvant, FIG. 7): 172,647 ng/ml

Molecule: C5a C-terminal decapeptide agonist analog YSFKPMPLaR
- pD2 (-log EC50 (M)) [2]: 5.63
- EC50 [3]: 2340 nM
- smooth muscle contraction of human umbilical artery, EC50 [4]: 10 nM
- smooth muscle contraction of human umbilical artery, pD2 (-log EC50 (M)) [4]: 6.99

B1: natural C5a (ligand, UniProt P01031 678-751, looked up)
chain: TLQKKIEEIAAKYKHSVVKKCCYDGACVNNDETCEQRAARISLGPRCIKAFTECCVVASQLRANISHKDMQLGR
- MPO release from human PMNs, EC50 [5]: 3 nM
- MPO release from human PMNs, pD2 (-log EC50 (M)) [5]: 8.5
- EC50 [6]: 0.4 nM
- pD2 (-log EC50 (M)) [7]: 9.43
- smooth muscle contraction of human umbilical artery, EC50 [8]: 2 nM
- smooth muscle contraction of human umbilical artery, pD2 (-log EC50 (M)) [8]: 8.77
